Measured values from the supplement of paper PMC10724198.
± gives the standard deviation of the averaged measurements.

system: Saccharomyces cerevisiae; test: protein stability index of tFT-peptide fusion (C-terminal peptide) (PSI (0-1 scale)); higher = more stable (slower turnover); details: genetic background: wild type; temperature: 30 C
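Also: PSI is a weighted mean of sequencing reads over stability bins, variants kept only with over 10 reads, mCherry proximal and sfGFP distal, peptide attached via GGGS linker.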

Sequence	protein stability index
GRCIPSFVLPRY	0.693 ± 0.029
SVSPLSSSTLTA	0.65 ± 0.019
LPSLLYIFPPLS	0.6975 ± 0.0068
GLRTPHASVPPQ	0.66 ± 0.023
CRRRNRLLLFRK	0.697 ± 0.037
VAIRLLCSPLGK	0.64 ± 0.029
KRRGECEGGRRG	0.672 ± 0.044
GLGWGGRGMRVV	0.695 ± 0.026
TSSRHNEVIKGC	0.706 ± 0.033
PPTPLIPPLPLH	0.716 ± 0.043
GEGCPAGGHGCE	0.6864 ± 0.0063
GLCVTEFCGFFL	0.705 ± 0.019
GGWCGSGGVVRG	0.675 ± 0.12
NVNMGSRGQFNF	0.628 ± 0.026
PLPRPPPPSCPP	0.654 ± 0.076
SPGRPSSPPRPR	0.744 ± 0.029
HSPPPLPLPTHP	0.719 ± 0.077
TKKKNTKKNNNT	0.67 ± 0.095
SRSSASTKRNRW	0.701 ± 0.096
RRGWGDRLGRDA	0.711 ± 0.1
MKTSIQHNRNPG	0.659 ± 0.0096
VVGKKQTGEKEK	0.725 ± 0.048
NKIKTSRKKNNQ	0.723 ± 0.017
FESTCSGLLYNS	0.694 ± 0.039
NKILIKKEQEEI	0.64356 ± 0.00045
SFRDRHRRLCDL	0.596 ± 0.035

Sequence	protein stability index
SSSPPPPSLAPP	0.693 ± 0.0025
AGSDLGLIEGIV	0.685 ± 0.024
PFFPVALPFPHL	0.7 ± 0.021
MWYCGVSGPGNG	0.6859 ± 0.0013
GGPVEQVYSKGR	0.721 ± 0.042
SPPHPPPLLLPP	0.655 ± 0.066
SSLPSFPTKCPF	0.71 ± 0.051
SHTIVPNPLKLV	0.576 ± 0.019
RFPFFLLPPLSS	0.65 ± 0.091
FFTVRLRGGRDC	0.649 ± 0.024
ELTPCGNNDHAI	0.644 ± 0.0087
GGGVGGGVGQRG	0.705 ± 0.086
NTLTSCRPVASK	0.704 ± 0.037
KCPSLVHSNSTG	0.71 ± 0.016
ARADILLLTWGV	0.604 ± 0.027
HASPPPDASPPL	0.687 ± 0.022
GQSLGLPGRWYI	0.775 ± 0.06
GGAPAPPSRRPW	0.696 ± 0.032
SFFVTVAGPFQI	0.686 ± 0.012
VASKAGVLFGIR	0.673 ± 0.12
GGVGSCLVLSAR	0.668 ± 0.036
PYSCPPGCRSVL	0.6894 ± 0.0043
PRLDPTSPPPHA	0.675 ± 0.0094
PLSPRLPRRRLP	0.681 ± 0.017
QLPPRLSRRLPP	0.741 ± 0.17
RVKGCYGPGSGI	0.685 ± 0.066

Sequence	protein stability index
HIGVVSIERLTS	0.576 ± 0.021
GVGCGGGGSSCA	0.703 ± 0.11
GCPRSCYIPSSV	0.72 ± 0.011
LLHPSPTPPCPP	0.696 ± 0.06
PPSPPPPLYPPA	0.683 ± 0.038
FLSWGSGVFGLL	0.671 ± 0.056
FLLCISGFSSFL	0.592 ± 0.0077
KCSLVLTVARSY	0.609 ± 0.014
GGGGGGSTPALG	0.667 ± 0.028
GGKGGWHRRWGC	0.643 ± 0.062
AITSPLGFGVLG	0.717 ± 0.015
GMVFGLAWCGCL	0.619 ± 0.046
TWGCAGAIRSVG	0.689 ± 0.094
HLPPFSGIHLTP	0.719 ± 0.011
KKKNKNENKKPQ	0.667 ± 0.021
KEKKQARVKKKK	0.723 ± 0.022
RATTDGGRGGRR	0.696 ± 0.037
CWSSPSFSLLFP	0.779 ± 0.028
LGLSTLLVPHTR	0.743 ± 0.028
GGRGGVWWVGRV	0.675 ± 0.037
PPPPPTFPVLTS	0.603 ± 0.046
LVRILSRSVVRT	0.697 ± 0.078
PGSCGATTRCLH	0.481 ± 0.075
FICAGPLGVCSC	0.498 ± 0.011
PQFSPCRLALLS	0.616 ± 0.018
HFLSCVGSLWFH	0.741 ± 0.0087

Sequence	protein stability index
FRPPFRSAPLSP	0.679 ± 0.051
AEGPWMEDGDMG	0.7024 ± 0.0028
GGRGVGVVLGVC	0.5219 ± 0.00031
CVCGRFGGELGV	0.653 ± 0.1
SSPLRLAPTEPS	0.6927 ± 0.0039
SGPGGVGPTGGI	0.6585 ± 0.0055
IEGEVRKIGNPT	0.681 ± 0.086
PSSTSPPPPPPP	0.695 ± 0.025
SPPPNPRRPVPL	0.6916 ± 0.0023
PPSPPPPPRFLP	0.662 ± 0.041
LVCGIDSLVRLV	0.57 ± 0.029
GFYAMWNSIFWF	0.743 ± 0.001
AVVVGGGGWWWA	0.801 ± 0.12
ACRREMISVLYT	0.624 ± 0.0075
EPGQWRAASYGF	0.71 ± 0.024
GVWGGRGQGWYR	0.674 ± 0.0096
AAGGPGGPELWG	0.749 ± 0.14
GLPRAANMKGSE	0.652 ± 0.011
KKKKKKKTKKKK	0.78 ± 0.034
RGGGGGSVSFWW	0.676 ± 0.071
RVWEGGGGGDGC	0.664 ± 0.047
SNGYMFRRDRYV	0.686 ± 0.028
KVFHTDSNPNNK	0.663 ± 0.016
